Measured values published in PMC8433531 (Proceedings of the National Academy of Sciences of the …, 2021).

B1: Lactoferrin (protein, UniProt P24627 20-708, looked up)
Lactotransferrin: APRKNVRWCTISQPEWFKCRRWQWRMKKLGAPSITCVRRAFALECIRAIAEKKADAVTLDGGMVFEAGRDPYKLRPVAAEIYGTKESPQTHYYAVAVVKKGSNFQLDQLQGRKSCHTGLGRSAGWIIPMGILRPYLSWTESLEPLQGAVAKFFSASCVPCIDRQAYPNLCQLCKGEGENQCACSSREPYFGYSGAFKCLQDGAGDVAFVKETTVFENLPEKADRDQYELLCLNNSRAPVDAFKECHLAQVPSHAVVARSVDGKEDLIWKLLSKAQEKFGKNKSRSFQLFGSPPGQRDLLFKDSALGFLRIPSKVDSALYLGSRYLTTLKNLRETAEEVKARYTRVVWCAVGPEEQKKCQQWSQQSGQNVTCATASTTDDCIVLVLKGEADALNLDGGYIYTAGKCGLVPVLAENRKSSKHSSLDCVLRPTEGYLAVAVVKKANEGLTWNSLKDKKSCHTAVDRTAGWNIPMGLIVNQTGSCAFDEFFSQSCAPGADPKSRLCALCAGDDQGLDKCVPNSKEKYYGYTGAFRCLAEDVGDVAFVKNDTVWENTNGESTADWAKNLNREDFRLLCLDGTRKPVTEAQSCHLAVAPNHAVVSRSDRAAHVKQVLLHQQALFGKNGKNCPDKFCLFKSETKNLLFNDNTECLAKLGGRPTYEEYLGTEYVTAIANLKKCSTSPLLEACAFLTR
modifications: iron-free apo form
B2: hololactoferrin: iron-saturated hololactoferrin (Sigma-Aldrich; L4765) (protein, UniProt P24627 20-708, looked up)
Lactotransferrin: B1 Lactotransferrin
modifications: iron-saturated
B3: Human Lactoferrin: native human lactoferrin (Creative BioMart; LFT-8196H) (protein, UniProt P02788 20-710, looked up)
Lactotransferrin: GRRRSVQWCAVSQPEATKCFQWQRNMRKVRGPPVSCIKRDSPIQCIQAIAENRADAVTLDGGFIYEAGLAPYKLRPVAAEVYGTERQPRTHYYAVAVVKKGGSFQLNELQGLKSCHTGLRRTAGWNVPIGTLRPFLNWTGPPEPIEAAVARFFSASCVPGADKGQFPNLCRLCAGTGENKCAFSSQEPYFSYSGAFKCLRDGAGDVAFIRESTVFEDLSDEAERDEYELLCPDNTRKPVDKFKDCHLARVPSHAVVARSVNGKEDAIWNLLRQAQEKFGKDKSPKFQLFGSPSGQKDLLFKDSAIGFSRVPPRIDSGLYLGSGYFTAIQNLRKSEEEVAARRARVVWCAVGEQELRKCNQWSGLSEGSVTCSSASTTEDCIALVLKGEADAMSLDGGYVYTAGKCGLVPVLAENYKSQQSSDPDPNCVDRPVEGYLAVAVVRRSDTSLTWNSVKGKKSCHTAVDRTAGWNIPMGLLFNQTGSCKFDEYFSQSCAPGSDPRSNLCALCIGDEQGENKCVPNSNERYYGYTGAFRCLAENAGDVAFVKDVTVLQNTDGNNNEAWAKDLKLADFALLCLDGKRKPVTEARSCHLAMAPNHAVVSRMDKVERLKQVLLHQQAKFGRNGSDCPDKFCLFQSETKNLLFNDNTECLARLHGKTTYEKYLGPQYVAGITNLKKCSTSPLLEACEFLRK

Tests used:
[1] = test system: SARS-CoV-2; type: cell-based
[2] = test system: SARS-CoV-2; type: cell-based; remark: listed apart in the source
[3] = test system: IFNβ and interferon-stimulated gene transcripts; type: cell-based, human; settings: virus-infected Huh7, MOI 0.2, 48 h, 6250 nM
[4] = test system: SARS-CoV-2; type: cell-based; remark: listed apart in the source
[5] = test system: SARS-CoV-2; test: microbe, parasite or virus in culture; type: cell-based
[6] = test system: SARS-CoV-2; test: Hit validation across cell systems; type: cell-based; settings: Huh7, LNCaP, Caco-2, Vero E6, iAEC2

Row | Molecule | antiviral activity through a range of MOIs [1] | antiviral activity when added after infection [1] | viral replication (viral RNA by RT-qPCR) [2] | IFNβ and interferon-stimulated gene transcripts [3] | antiviral activity at high MOI [4] | antiviral activity against SARS-CoV-2 in iAECs ([4]; iAEC2) | IC50 [5] | efficacy across all tested cell systems [6] | antiviral activity (iron chelation control) ([1]; Huh7, 6,250 nM)
1 | B1 | retained antiviral activity | maintained antiviral activity | dose-dependent inhibition of viral replication | up-regulation | retained antiviral activity | dose-responsive antiviral activity | 440 nM | maintained efficacy across all tested cell systems | –
2 | B2 | – | – | – | – | – | – | – | – | retained activity
3 | B3 | – | – | – | – | retained antiviral activity | – | – | – | –
